Measurements from patent US20050136044A1, “Butyrylcholinesterase variants that alter the activity of chemotherapeutic agents” (priority 2003, published 2005).
Values joined by “and” are separate entries in the source; they are usually repeats but may differ in a detail not shown here. Equal entries are not always repeated. Where two headings read alike, the source gives them in different places.

Key:
[1] = cited from earlier work; for Km: Humerickhouse et al. 2000, read-out: Km (CPT-11 conversion)
[2] = CPT-11 conversion to SN-38, fluorescent HPLC detection, conditioned media of transiently expressed BChE variants; type: biochemical
Experimental: Butyrylcholinesterase variants were assayed for CPT-11 conversion activity using fluorescent High Performance Liquid Chromotography (HPLC) detection of SN-38 formation as described in Dodds and Rivory, Mol. Pharmacol. 56: 1346-1353 (1999), which is incorporated herein by reference. Briefly, conditioned media from transiently expressed BChE variants were exposed to 20 mM CPT-11 for 72 hours at 37° C. and analyzed by HPLC for SN-38 formation (peak at about 4 minutes column retention time).

[3] = BChE-mediated CPT-11 hydrolysis, SN38 quantitated by reverse-phase HPLC with fluorescence detection; Km by Hofstee plot; type: biochemical; details: for increase in CPT-11 hydrolysis over wild-type BChE: SN38 peak AUC, wild type 20 μg, BChE.4-1 0.05 μg; for improvement in the Km for CPT-11: versus wild-type / native serum BChE
Experimental: BChE plasmid variants were expressed transiently in the human embryonic kidney cell line 293T and assayed for activity at 72 hours post-transfection. Primary screening of variants was performed by indirect measurement of enzymatic activation of CPT-11 (FIG. 2) in SW48 colon carcinoma cell cytotoxicity assays. […] Functional hits identified in these assays were characterized by sequence analysis of the corresponding DNA from the original preps. […] Enzyme was incubated at 37° C. for 24 hours with CPT-11 over a range of concentrations from 1-80 μM. […] Velocity (v) is in light absorbance units at 540 nm. Substrate concentration [s] is μM CPT-11.
Samples were acidified and resolved by reverse-phase HPLC on a NovaPak C18 column to separate SN38 from unactivated CPT-11. SN38 peak area under the curve (AUC) was used to compare CPT-11 activation by the wild-type enzyme to the optimized BChE.4-1 variant.

For hCE-1, the Km [1] is listed as 43 µM.

B1: F227A/S287P (protein)
chain: EDDIIIATKNGKVRGMNLTVFGGTVTAFLGIPYAQPPLGRLRFKKPQSLTKWSDIWNATKYANSCCQNIDQSFPGFHGSEMWNPNTDLSEDCLYLNVWIPAPKPKNATVLIWIYGGGFQTGTSSLHVYDGKFLARVERVIVVSMNYRVGALGFLALPGNPEAPGNMGLFDQQLALQWVQKNIAAFGGNPKSVTLFGESAGAASVSLHLLSPGSHSLFTRAILQSGSANAPWAVTSLYEARNRTLNLAKLTGCSRENETEIIKCLRNKDPQEILLNEAFVVPYGTPLXVNFGPTVDGDFLTDMPDILLELGQFKKTQILVGVNKDEGTAFLVYGAPGFSKDNNSIITRKEFQEGLKIFFPGVSEFGKESILFHYTDWVDDQRPENYREALGDVVGDYNFICPALEFTKKFSEWGNNAFFYYFEHRSSKLPWPEWMGVMHGYEIEFVFGLPLERRDNYTKAEEILSRSIVKRWANFAKYGNPNETQNNSTSWPVFKSTEQKYLTLNTESTRIMTKLRAQQCRFWTSFFPKVLEMTGNIDEAEWEWKAGFHRWNNYMMDWKNQFNDYTSKKESCVGL
modifications: synthetic butyrylcholinesterase variant; VARIANT 227: Xaa = Ala; VARIANT 287: Xaa = Pr0
With B1 the “Fold improvement in CPT-11 conversion” value ([2]; compared to wild-type butyrylcholinesterase, conditioned media exposed to 20 mM CPT-11 for 72 hours at 37° C., SN-38 by HPLC, conservative values) was over 6 fold and the “CPT-11 conversion to SN-38 (SN-38 formation by HPLC), in words” value ([2]; conditioned media, 20 mM CPT-11, 72 hours, 37° C., versus mock / wild-type) was “increased CPT-11 conversion to SN-38”.

B2: 4-1 variant (protein)
chain: EDDIIIATKNGKVRGMNLTVFGGTVTAFLGIPYAQPPLGRLRFKKPQSLTKWSDIWNATKYANSCCQNIDQSFPGFFGSEMWNPNTDLSEDCLYLNVWIPAPKPKNATVLIWIYGGGFQTGTSSLHVYDGKFLARVERVIVVSMNYRVGALGFLALPGNPEAPGNMGLFDQQLALQWVQKNIAAFGGNPKSVTLFGESAGAASVSLHLLSPGSHSLFTRAILQSGSXNAPWAVTSLYEARNRTLNLAKLTGCSRENETEIIKCLRNKDPQEILLNEAFVVPYGTNLSVNFGPTVDGDFLTDMPDILLELGQFKKTQILVGVNKDEGTAFLAYGAPGFSKDNNSIITRKEFQEGLKIFFPGVSEFGKESILFHYTDWVDDQRPENYREALGDVVGDYNFICPALEFTKKFSEWGNNAFFYYFEHRSSKLPWPEWMGVMHGYEIEFVFGLPLERRDNYTKAEEILSRSIVKRWANFAKYGNPNETQNNSTSWPVFKSTEQKYLTLNTESTRIMTKLRAQQCRFWTSFFPKVLEMTGNIDEAEWEWKAGFHRWNNYMMDWKNQFNDYTSKKESCVGL
modifications: synthetic butyrylcholinesterase variant; VARIANT 227: Xaa = Ala
With B2 the Km ([3]; 37° C., 24 hours, CPT-11 1-80 μM, Hofstee plot) was ~7 µM and 6.9 µM, the “increase in CPT-11 hydrolysis over wild-type BChE” value (shortened to “increase in CPT-11 hydrolysis”) ([3]; 37° C., 24 hours) was over 3000 fold and the “increase in CPT-11 hydrolysis” value ([3]; 37° C., 24 hours, listed as H77F, F227A, P285N, V331A) was “at least a three thousand-fold”. The “increase in CPT-11 hydrolysis” value ([3]; 37° C., 24 hours, listed as SEQ ID NO: 180) was “at least a three thousand-fold”, the “improvement in the Km for CPT-11” value [3] was 5-6 fold and the “improvement in the Km for CPT-11” value ([3]; listed as BChE variant 4-1) was 5-6 fold and > 5 fold.

B3: hCE-2 (protein, UniProt O00748 27-559, looked up)
Cocaine esterase: QDSASPIRTTHTGQVLGSLVHVKGANAGVQTFLGIPFAKPPLGPLRFAPPEPPESWSGVRDGTTHPAMCLQDLTAVESEFLSQFNMTFPSDSMSEDCLYLSIYTPAHSHEGSNLPVMVWIHGGALVFGMASLYDGSMLAALENVVVVIIQYRLGVLGFFSTGDKHATGNWGYLDQVAALRWVQQNIAHFGGNPDRVTIFGESAGGTSVSSLVVSPISQGLFHGAIMESGVALLPGLIASSADVISTVVANLSACDQVDSEALVGCLRGKSKEEILAINKPFKMIPGVVDGVFLPRHPQELLASADFQPVPSIVGVNNNEFGWLIPKVMRIYDTQKEMDREASQAALQKMLTLLMLPPTFGDLLREEYIGDNGDPQTLQAQFQEMMADSMFVIPALQVAHFQCSRAPVYFYEFQHQPSWLKNIRPPHMKADHGDELPFVFRSFFGGNYIKFTEEEEQLSRKMMKYWANFARNGNPNGEGLPHWPLFDQEEQYLQLNLQPAVGRALKAHRLQFWKKALPQKIQELEEPEERHTEL
For B3, the “catalytic efficiency relative to hCE-1” value ([1]; CPT-11 conversion) is given as 60 fold, the Km [1] is given as 3.4 µM and the “rate of conversion of CPT-11 to SN38 relative to hCE-1” value ([1]; at pharmacologically relevant concentrations of the drug (~1-10 μM)) is given as 25-30 fold.
